Patent EP3228631A2 (TLA Targeted Immunotherapies AB, dated 2017)
One block for each molecule: values may come before it.

What was measured:
CCR3 (human) [1] = target: CCR3 (human) (UniProt P51677); experiment: blood passed through the eotaxin coupled matrix (MACS beads, magnetic separator); flow cytometry before and after; one healthy donor
CCR7 = target: T1, CCR7 (human, UniProt P32248 25-378); experiment: cell-based or functional assay
T1 sequence (looked up): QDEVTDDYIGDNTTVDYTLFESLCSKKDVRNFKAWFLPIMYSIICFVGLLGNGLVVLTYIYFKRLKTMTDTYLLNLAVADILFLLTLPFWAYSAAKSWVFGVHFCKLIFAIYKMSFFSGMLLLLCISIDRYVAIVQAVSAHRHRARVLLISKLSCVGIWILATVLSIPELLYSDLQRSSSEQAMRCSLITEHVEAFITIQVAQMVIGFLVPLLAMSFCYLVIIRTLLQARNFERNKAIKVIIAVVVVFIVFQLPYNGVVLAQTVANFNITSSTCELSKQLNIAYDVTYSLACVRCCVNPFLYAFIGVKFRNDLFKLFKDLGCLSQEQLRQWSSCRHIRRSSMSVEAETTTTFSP

hCXCR1 (human) = hCXCR1 (human) (UniProt P25024); experiment: cell-based or functional assay
hCXCR1 (human), sequence (P25024 whole entry): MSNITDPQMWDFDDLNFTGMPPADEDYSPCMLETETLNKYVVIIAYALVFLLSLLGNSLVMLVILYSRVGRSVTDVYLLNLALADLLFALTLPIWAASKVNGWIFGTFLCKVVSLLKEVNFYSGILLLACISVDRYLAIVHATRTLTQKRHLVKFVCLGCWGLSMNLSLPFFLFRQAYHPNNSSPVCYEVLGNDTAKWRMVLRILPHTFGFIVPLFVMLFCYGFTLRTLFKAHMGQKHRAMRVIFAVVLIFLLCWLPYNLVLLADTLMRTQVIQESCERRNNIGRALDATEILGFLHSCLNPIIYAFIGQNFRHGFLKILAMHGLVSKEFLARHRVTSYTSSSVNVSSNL

CCR5 (human) [2] = target: CCR5 (human) (UniProt P51681); experiment: blood passed through the biotinylated RANTES coupled matrix column; flow cytometry for CCR1, 3 or 5-expressing cells; one healthy donor
CCR5 (human), sequence (P51681 whole entry): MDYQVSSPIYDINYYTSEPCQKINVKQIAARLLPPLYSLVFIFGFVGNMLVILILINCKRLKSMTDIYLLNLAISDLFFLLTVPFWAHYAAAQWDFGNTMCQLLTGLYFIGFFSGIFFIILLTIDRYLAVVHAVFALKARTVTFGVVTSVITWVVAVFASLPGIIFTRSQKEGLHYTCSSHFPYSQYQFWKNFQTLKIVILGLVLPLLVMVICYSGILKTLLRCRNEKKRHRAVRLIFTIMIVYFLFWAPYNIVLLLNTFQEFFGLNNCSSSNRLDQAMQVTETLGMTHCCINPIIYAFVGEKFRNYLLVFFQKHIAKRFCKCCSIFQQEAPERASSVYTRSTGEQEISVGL

CCR1 (human) = target: T2, CCR1 (human) (UniProt P32246); experiment: as above
T2 sequence (looked up): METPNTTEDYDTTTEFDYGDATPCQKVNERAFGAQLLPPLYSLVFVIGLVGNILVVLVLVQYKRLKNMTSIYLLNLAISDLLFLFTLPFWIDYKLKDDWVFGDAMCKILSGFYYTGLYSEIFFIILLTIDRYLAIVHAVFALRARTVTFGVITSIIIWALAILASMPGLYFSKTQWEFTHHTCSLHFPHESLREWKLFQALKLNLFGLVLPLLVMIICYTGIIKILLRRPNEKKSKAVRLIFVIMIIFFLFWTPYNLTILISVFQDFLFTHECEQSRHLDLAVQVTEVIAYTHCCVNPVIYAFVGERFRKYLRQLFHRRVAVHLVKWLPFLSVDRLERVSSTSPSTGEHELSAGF

CCR3 (human) [3] = target: CCR3 (human) (UniProt P51677); experiment: as above
CCR5 (human) [4] = target: CCR5 (human) (UniProt P51681); experiment: cell-based or functional assay
CCR3 (human) [5] = target: CCR3 (human) (UniProt P51677); experiment: cell-based or functional assay
hCCR2b = target: T3, hCCR2b (human, UniProt P41597 1-374); experiment: cell-based or functional assay
T3 chain: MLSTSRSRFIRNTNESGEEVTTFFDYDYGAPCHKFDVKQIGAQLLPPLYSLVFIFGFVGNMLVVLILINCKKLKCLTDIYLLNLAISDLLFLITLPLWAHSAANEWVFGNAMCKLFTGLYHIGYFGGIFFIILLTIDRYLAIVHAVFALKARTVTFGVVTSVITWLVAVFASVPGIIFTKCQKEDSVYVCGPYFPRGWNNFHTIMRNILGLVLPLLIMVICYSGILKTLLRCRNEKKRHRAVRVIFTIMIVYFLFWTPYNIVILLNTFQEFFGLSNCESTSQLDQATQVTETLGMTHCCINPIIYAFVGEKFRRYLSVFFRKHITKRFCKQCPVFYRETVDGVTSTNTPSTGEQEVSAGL

CCR3 (human), sequence (P51677 whole entry): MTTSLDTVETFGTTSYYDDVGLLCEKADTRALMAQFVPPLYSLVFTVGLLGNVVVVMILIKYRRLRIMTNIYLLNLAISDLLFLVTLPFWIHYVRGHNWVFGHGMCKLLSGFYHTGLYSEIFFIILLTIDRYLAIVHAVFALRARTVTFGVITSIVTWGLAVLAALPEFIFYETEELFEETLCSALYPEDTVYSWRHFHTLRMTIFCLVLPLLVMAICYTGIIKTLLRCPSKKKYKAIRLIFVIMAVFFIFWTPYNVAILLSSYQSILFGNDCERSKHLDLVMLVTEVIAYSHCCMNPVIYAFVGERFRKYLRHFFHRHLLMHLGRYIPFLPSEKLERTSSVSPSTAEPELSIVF

Molecule: recombinant native MIP-3β (from UniProt Q99731 22-98) (ligand)
EC50, Aequorin assay (CCR7): 1.6 nM

Molecule: recombinant native IL-8 (from UniProt P10145 28-99) (ligand)
EC50, Aequorin assay (hCXCR1 (human)): 4.2 nM

Molecule: biotinIL-8 (6-78) (IL-8 (6-78) derivatised at the ε-amino side chain functionality of Lys(78) with PEG-Biotin) (from UniProt P10145 28-99) (ligand)
EC50, agonist activity, Aequorin assay (hCXCR1 (human)): 6.1 nM

Molecule: recombinant native eotaxin (from UniProt P51671 24-97) (ligand)
EC50, agonist, Aequorin assay (CCR3 (human) [5]): 10.7 nM

B2: recombinant native MCP-2 (ligand, human, UniProt P80075 24-99, looked up)
chain: QPDSVSIPITCCFNVINRKIPIQRLESYTRITNIQCPKEAVIFKTKRGKEVCADPKERWVRDSMKHLDQIFQNLKP
EC50, partial agonist, Aequorin assay (hCCR2b): 23.5 nM

Now from value to molecule:

reduction of CCR3-expressing cells by the column (CCR3 (human) [1]): 25%
Molecule: biotinylated eotaxin (from UniProt P51671 24-97) (ligand)

reduction of chemokine receptor-expressing cells by the column (CCR5 (human) [2]): 20%
reduction of chemokine receptor-expressing cells by the column (CCR1 (human)): 20%
reduction of chemokine receptor-expressing cells by the column (CCR3 (human) [3]): 20%
EC50, agonist activity, Aequorin assay (CCR5 (human) [4]): 0.5 nM
Molecule: biotinRANTES (RANTES derivatised at the ε-amino side chain functionality of Lys(67) with Biotin) (from UniProt P13501 24-91) (ligand)

EC50, agonist activity, Aequorin assay (CCR7): 11 nM
B1: biotinMIP-3β (MIP-3β derivatised at the ε-amino side chain functionality of Lys(78) with Biotin) (ligand)
chain: GTNDAEDCCLSVTQKPIPGYIVRNFHYLLIKDGCRVPAVVFTTLRGRQLCAPPDQPWVERIIQRLQRTSAKMKRRSSX
modifications: X78 = K(Biotin) (additional C-terminal lysine, biotinylated); C-terminal amide (Rink Amide resin)
